The values below come from patent publication US20230287145A1 (Hoffmann-La Roche, published 2023).

Test [1] concerns the target T1, FOLR1 CD3 TCB P035.093.
T1 construct: Classical 2+1 TCB, knob-into-hole, PGLALA; the common light chain pairs with each of the Fabs; also called FOLR1 TCB CD3: P035.093
Put plainly: SPR, Biacore T200, 37 °C; FOLR1 CD3 TCB P035.093 captured on FOLR1-Fc (C1 chip), anti-idiotypic antibody as analyte; n=5; Stdev 198 s. Here is the method: (§1) Briefly, FOLR1-Fc was immobilized on a series s sensor chip C1 using standard amine coupling chemistry according to the manufacturer's instructions. […] The first flow cell was kept as mock surface. […] Dissociation was monitored for 300 s, the flow rate was set to 30 μl/min. The surface was regenerated by injecting 10 mM Glycine pH 2.0 for 60 s, followed by injecting 5 mM NaOH for 60 s at a flow rate of 5 μl/min. Bulk refractive index differences were corrected by subtracting the response obtained from flow cell one (mock surface) as well as by substracting buffer injections (double referencing). The derived curves were fitted to a 1:1 Langmuir binding model using the BIAevaluation software (GE Healthcare). […] All experiments were performed at 37° C. using HBS-N (10 mM HEPES, 150 mM NaCl pH 7.4, 0.05% Surfactant P-20).

In test [2] the target is T2, biotinylated anti-human CD3 IgG (anti-CD3 P035.093) (biotinylated (site not stated)).
T2 construct: IgG format of this reagent is not described further; immobilised on a CAP chip; also called CD3 IgG (P035.093)
T2 sequence (VH, as listed by the source, chain 1 of 2): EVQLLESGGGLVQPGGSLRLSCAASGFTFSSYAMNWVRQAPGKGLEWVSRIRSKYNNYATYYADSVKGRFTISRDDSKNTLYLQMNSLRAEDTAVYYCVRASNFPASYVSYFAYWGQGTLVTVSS
T2 sequence (VL, as listed by the source, chain 2 of 2): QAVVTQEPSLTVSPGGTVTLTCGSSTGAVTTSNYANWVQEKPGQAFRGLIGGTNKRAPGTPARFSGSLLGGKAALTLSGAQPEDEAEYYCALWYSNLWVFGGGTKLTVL
Put plainly: SPR; biotinylated anti-CD3 P035.093 IgG on CAP chip, anti-idiotypic IgG at 1 µg/ml; response normalised to anti-human IgG surface and to the unstressed sample; after 14 d at 40 °C pH 6.0. Here is the method:
(§2) Flow cell 1 was kept as mock surface. […] Dissociation was monitored for 30 s, the flow rate was set to 5 μl/min. The CAP chip was regenerated by injecting a mix of NaOH and Guadinium-hydrochloride for 120 s, provided in the biotin capture kit. Bulk refractive index differences were corrected by subtracting the response obtained from flow cell 1 (mock surface).

The target in test [3] is T1, FOLR1 CD3 TCB P035.093. Put plainly: SPR, Biacore T200, 37 °C; FOLR1 CD3 TCB P035.093 captured on FOLR1-Fc (C1 chip), anti-idiotypic antibody 1.2-100 nM as analyte; 1:1 Langmuir fit; n=5; Stdev 0.5 nM. The method, then: as §1
For test [4], the target named is T2, biotinylated anti-human CD3 IgG …. Put plainly: SPR; biotinylated anti-CD3 P035.093 IgG on CAP chip, anti-idiotypic IgG at 1 µg/ml; response normalised to anti-human IgG surface and to the unstressed sample; after 14 d at 37 °C pH 7.4. The method, then: Therefore, they were analyzed for thermal stability and remaining target binding after 14 d stress conditions (40° C. at pH6.0 or 37° C. at pH7.4).
as §2

Test [5] has as its target T1, FOLR1 CD3 TCB P035.093. Put plainly: SPR, Biacore T200, 37 °C; FOLR1 CD3 TCB P035.093 captured on FOLR1-Fc (C1 chip), anti-idiotypic antibody as analyte; n=5; Stdev 66 s. The method, then:
as §1

The target of test [6] is T1, FOLR1 CD3 TCB P035.093. Put plainly: SPR, Biacore T200, 37 °C; FOLR1 CD3 TCB P035.093 captured on FOLR1-Fc (C1 chip), anti-idiotypic antibody 1.2-100 nM as analyte; 1:1 Langmuir fit; n=5; Stdev 0.6 nM. The method, then:
as §1

The target of test [7] is T1, FOLR1 CD3 TCB P035.093. Put plainly: SPR, Biacore T200, 37 °C; FOLR1 CD3 TCB P035.093 captured on FOLR1-Fc (C1 chip), anti-idiotypic antibody 1.2-100 nM as analyte; 1:1 Langmuir fit; n=5; Stdev 1.0 nM. Here is the method:
as §1

Test [8] concerns the target T1, FOLR1 CD3 TCB P035.093. As to the kind of experiment: SPR, Biacore T200, 37 °C; FOLR1 CD3 TCB P035.093 captured on FOLR1-Fc (C1 chip), anti-idiotypic antibody as analyte; n=5; Stdev 156 s. The method, then: as §1
Test [9] has as its target T1, FOLR1 CD3 TCB P035.093. As to the kind of experiment: SPR, Biacore T200, 37 °C; FOLR1 CD3 TCB P035.093 captured on FOLR1-Fc (C1 chip), anti-idiotypic antibody as analyte; n=5; Stdev 222 s. Here is the method:
as §1

The target of test [10] is T1, FOLR1 CD3 TCB P035.093. As to the kind of experiment: SPR, Biacore T200, 37 °C; FOLR1 CD3 TCB P035.093 captured on FOLR1-Fc (C1 chip), anti-idiotypic antibody 1.2-100 nM as analyte; 1:1 Langmuir fit; n=5; Stdev 0.4 nM. Here is the method:
as §1

In test [11] the target is TYRP1 TCB with CD3 binder CH2527. As to the kind of experiment: cell-based or functional assay.
In test [12] the target is TYRP1 TCB containing optimized anti-CD3 antibody clone P035.093. Put plainly: cell-based or functional assay.
Test [13] concerns the target T3, TCB with CD3 binding Fab P035.093 (analyte of Table 9).
T3 construct: not shown: Target-cell arm (TYRP1 or FOLR1 16D5), constant regions and Fc
As to the kind of experiment: SPR, Biacore T200; anti-idiotypic IgG amine-coupled on CM5 chip, TCB as analyte; 1:1 Langmuir fit; single dilution series. The method, then: (§3) SPR experiments were performed on a Biacore T200 with HBS-EP+ as running buffer (0.01 M HEPES pH 7.4, 0.15 M NaCl, 0.005% Surfactant P20 (BR-1006-69, GE Healthcare)). Three anti-idiotypic antibodies were directly immobilized by amine coupling on a CMS chip (GE Healthcare). A three-fold dilution series of the different T cell bispecifics (TCBs) was passed 20 over the ligand at 30 μl/min for 180 sec to record the association phase. The dissociation phase was monitored for 600 s and triggered by switching from the sample solution to HBS-EP+. The chip surface was regenerated after every cycle using one injection of 10 mM glycine pH 2.1 for 60 sec, followed by two injections of 30 sec. Bulk refractive index differences were corrected for by subtracting the response obtained on the reference flow cell 1. The affinity constants were derived from the kinetic rate constants by fitting to a 1:1 Langmuir binding using the Biaeval 5 software (GE Healthcare). The measure was performed with a single dilution series.
(§4) SPR analysis was evaluated with masks as IgGs (immobilized on CM5 chip) and TCBs with different CD3 binding Fabs as analytes.

In test [14] the target is T4, TCB with CD3 binding Fab CH2527 (analyte of Table 9).
T4 construct: also called CD3 CH2527; not shown: Target-cell arm (TYRP1 or FOLR1 16D5), constant regions and Fc
The description is as above. The method, then:
as §3, §4

The target in test [15] is T1, FOLR1 CD3 TCB P035.093. Put plainly: SPR, Biacore T200, 37 °C; FOLR1 CD3 TCB P035.093 captured on FOLR1-Fc (C1 chip), anti-idiotypic antibody as analyte; n=5; Stdev 140 s. The method, then:
as §1

B1: Humanized variant H1L2 of anti-idiotypic antibody 4.24.72 (IgG) (antibody, V domains shown)
VH: QVQLVQSGSELKKPGASVKVSCKASGYTVTDYSMNWVRQAPGQGLEWMGWINTETGEPRYTDDFKGRFVFSLDTSVSTAYLQISSLKAEDTAVYYCAREGDYDVFDYWGQGTLVTVSS
VL: DIVMTQSPDSLAVSLGERATINCKSSKSVSTSSYSYMHWYQQKPGQPPKLLIKYVSYLESGVPDRFSGSGSGTDFTLTISSLQAEDVAVYYCQHSREFPYTFGQGTKLEIK
notes: Produced and purified as IgG; also called Mask humanization variant H1L2
In the case of B1, in the test with FOLR1 CD3 TCB P035.093 [1], the “t1/2 diss” value is 6.6 min. In addition, the “Rel. active concentration [%]” value amounted to 97% in test [2] and 94% in [4]. Further, the Kd with FOLR1 CD3 TCB P035.093 [3] is 1.2 nM.

B2: Humanized variant H1L1 of anti-idiotypic antibody 4.24.72 (IgG) (antibody, V domains shown)
VH: QVQLVQSGSELKKPGASVKVSCKASGYTVTDYSMNWVRQAPGQGLEWMGWINTETGEPRYTDDFKGRFVFSLDTSVSTAYLQISSLKAEDTAVYYCAREGDYDVFDYWGQGTLVTVSS
VL: DIVMTQSPDSLAVSLGERATINCRASKSVSTSSYSYMHWYQQKPGQPPKLLIKYVSYLESGVPDRFSGSGSGTDFTLTISSLQAEDVAVYYCQHSREFPYTFGQGTKLEIK
notes: Produced and purified as IgG; also called Mask humanization variant H1L1
For B2, the “t1/2 diss” value in the test with FOLR1 CD3 TCB P035.093 [5] is 6.18 min. Also, the “Rel. active concentration [%]” value stood at 99% in [2] and 93% in test [4]. The equilibrium dissociation constant (Kd) with FOLR1 CD3 TCB P035.093 [6] worked out at 1.8 nM.

B3: Humanized variant H2L2 of anti-idiotypic antibody 4.24.72 (IgG) (antibody, V domains shown)
VH: QVQLVQSGSELKKPGASVKVSCKASGYTVTDYSMNWVRQAPGQGLEWMGWINTETGEPRYTDDFTGRFVFSLDTSVSTAYLQISSLKAEDTAVYYCAREGDYDVFDYWGQGTLVTVSS
VL: DIVMTQSPDSLAVSLGERATINCKSSKSVSTSSYSYMHWYQQKPGQPPKLLIKYVSYLESGVPDRFSGSGSGTDFTLTISSLQAEDVAVYYCQHSREFPYTFGQGTKLEIK
notes: Produced and purified as IgG; also called Mask humanization variant H2L2
Consider B3, for which, in the test with FOLR1 CD3 TCB P035.093 [7], binding was characterised by a dissociation constant (Kd) of 1.8 nM. For the same molecule, the “Rel. active concentration [%]” value in test [2] turned out to be 98%; in test [4], 93%. Besides, in the test with FOLR1 CD3 TCB P035.093 [8], the “t1/2 diss” value is 6.2 min.

B4: Humanized variant H3L2 of anti-idiotypic antibody 4.24.72 (IgG) (antibody, V domains shown)
VH: QVQLVQSGSELKKPGASVKVSCKASGYTVTDYSMNWVRQAPGQGLEWMGWINTETGEPRYTQGFKGRFVFSLDTSVSTAYLQISSLKAEDTAVYYCAREGDYDVFDYWGQGTLVTVSS
VL: DIVMTQSPDSLAVSLGERATINCKSSKSVSTSSYSYMHWYQQKPGQPPKLLIKYVSYLESGVPDRFSGSGSGTDFTLTISSLQAEDVAVYYCQHSREFPYTFGQGTKLEIK
notes: Produced and purified as IgG; also called Mask humanization variant H3L2
With B4, the “t1/2 diss” value with FOLR1 CD3 TCB P035.093 [9] was determined as 7.67 min. The “Rel. active concentration [%]” value in test [2] was 97%; in test [4], 94%. In the test with FOLR1 CD3 TCB P035.093 [3], this molecule came in with a dissociation constant (Kd) of 1.1 nM.

B5: Anti-idiotypic IgG 4.24.72 (parental chimeric antibody) (antibody, V domains shown)
VH: QIQLVQSGPELKKPGETVKISCKASGYTVTDYSMNWVKQAPGKCLKWMGWINTETGEPRYTDDFKGRFAFSLETSASTAYLQINNLKNEDSATYFCAREGDYDVFDYWGHGTTLKVSS
VL: DIVLTQSPASLAVSLGQRATISCRASKSVSTSSYSYMHWYQQKPGQPPKLLIKYVSYLESGVPARFSGSGSGTDFTLNIHPVEEEDAATYYCQHSREFPYTFGCGTKLEIK
notes: Tested as chimeric IgG; also called ID_4.24.72
In turn, B5 returned a Kd with FOLR1 CD3 TCB P035.093 [10] of 1.5 nM. The “IC50 (read off the curve): reduction of Jurkat NFAT luminescence by anti-ID 4.24.72 IgG, TYRP1 TCB (CH2527) at EC90” value in [11] was roughly 1 nM. For the same molecule, the “IC50 (read off the curve): reduction of Jurkat NFAT luminescence by anti-ID 4.24.72 IgG, TYRP1 TCB (CD3 variant P035.093) at EC90” value in [12] was roughly 1 nM. Moreover, in [13], the dissociation constant (Kd) was 2.1 nM, the off-rate (koff) was found to be 0.000309 s⁻¹ and the on-rate constant (kon) was 148000 M⁻¹ s⁻¹. In test [14], this molecule showed an equilibrium dissociation constant (Kd) of 4.7 nM, an off-rate (koff) of 0.000675 s⁻¹ and a kon of 141000 M⁻¹ s⁻¹. For the same molecule, the “t1/2 diss” value with FOLR1 CD3 TCB P035.093 [15] came out at 7.43 min.
